# Laboratory results: patent US20150038673A1
# Bridge positions count the residues as written; N and C are the ends. Square brackets hold non-standard residues; d marks the D form.
# How the values were obtained:
# [1] = biological target: anti-β1-ECII antibodies in rat sera reacting with both the Cys/Ser and the Ser/Cys mutated cyclopeptides (type2 reaction, n=5) (rat); assay: ELISA competition, type2 sera (n=5), linear 25AA Cys/Cys peptide as antigen
# [2] = biological target: anti-β1-ECII antibodies in rat sera preferentially reacting with the Cys/Ser mutated cyclopeptides (type1 reaction, n=64) (rat); assay: ELISA competition, type1 sera (n=64), linear 25AA Cys/Cys peptide as antigen
# [3] = biological target: anti-β1-ECII antibodies of GST/β1-ECII-immunized antibody-positive rats (sera or isolated IgG fractions) (rat); assay: ELISA after over-night incubation of n=6 rat sera with cyclopeptide (FIG. 27B, mean)
# [4] = biological target: anti-β1-ECII antibodies of GST/β1-ECII-immunized antibody-positive rats (sera or isolated IgG fractions) (rat); assay: ELISA competition, IgG of n=78 rats preincubated with peptide, linear 25AA Cys/Cys peptide as antigen
# [5] = biological target: anti-β1-ECII antibodies of GST/β1-ECII-immunized antibody-positive rats (sera or isolated IgG fractions) (rat); assay: dose-dependent ELISA competition, n=6 rat sera
blocking capacity (% of blocked versus non-blocked ELISA-reactivity) [1],blocking capacity (% of blocked versus non-blocked ELISA-reactivity) [2],blocking-efficiency (% of the ELISA signals of unblocked sera) [3],blocking capacity (% of blocked versus non-blocked ELISA-reactivity) [4],decrease in free anti-beta1-ECII antibodies (%) at 8-fold molar excess of peptide [5],decrease in free anti-beta1-ECII antibodies (%) at 20-fold molar excess of peptide [5],decrease in free anti-beta1-ECII antibodies (%) at 80-fold molar excess of peptide [5],decrease in receptor antibody-titers (%) at 8-fold molar excess of peptide [5],decrease in receptor antibody-titers (%) at 20-fold molar excess of peptide [5],decrease in receptor antibody-titers (%) at 80-fold molar excess of peptide [5],Binder
72%,65%,73.4%,67%,,,,,,,"cyclo(ARAESDEARRCYNDPKCCDFVTNRQ) (also: three Cys (11, 17, 18), disulfide pairing not defined) [3 Cys-containing β1-ECII-25AA Cys/Cys cyclopeptide]"
48%,69%,,,30%,49%,83%,,,,cyclo(ARAESDEARRCYNDPKCSDFVTNRQ) (disulfide 11-17; SMILES CC(C)[C@@H]1NC(=O)[C@H](Cc2ccccc2)NC(=O)[C@H](CC(=O)O)NC(=O)[C@H](CO)NC(=O)[C@@H]2CSSC[C@H](NC(=O)[C@H](CCCNC(=N)N)NC(=O)[C@H](CCCNC(=N)N)NC(=O)[C@H](C)NC(=O)[C@H](CCC(=O)O)NC(=O)[C@H](CC(=O)O)NC(=O)[C@H](CO)NC(=O)[C@H](CCC(=O)O)NC(=O)[C@H](C)NC(=O)[C@H](CCCNC(=N)N)NC(=O)[C@H](C)NC(=O)[C@H](CCC(N)=O)NC(=O)[C@H](CCCNC(=N)N)NC(=O)[C@H](CC(N)=O)NC(=O)[C@H]([C@@H](C)O)NC1=O)C(=O)N[C@@H](Cc1ccc(O)cc1)C(=O)N[C@@H](CC(N)=O)C(=O)N[C@@H](CC(=O)O)C(=O)N1CCC[C@H]1C(=O)N[C@@H](CCCCN)C(=O)N2) [ECII-25AA Cys/Ser mutant (Gln-)cyclopeptide (formula VII)]
,,74.9%,,,,,,,,cyclo(RAESDEARRCYNDPKCSDFVTG) (disulfide 10-16; SMILES CC(C)[C@@H]1NC(=O)[C@H](Cc2ccccc2)NC(=O)[C@H](CC(=O)O)NC(=O)[C@H](CO)NC(=O)[C@@H]2CSSC[C@H](NC(=O)[C@H](CCCNC(=N)N)NC(=O)[C@H](CCCNC(=N)N)NC(=O)[C@H](C)NC(=O)[C@H](CCC(=O)O)NC(=O)[C@H](CC(=O)O)NC(=O)[C@H](CO)NC(=O)[C@H](CCC(=O)O)NC(=O)[C@H](C)NC(=O)[C@H](CCCNC(=N)N)NC(=O)CNC(=O)[C@H]([C@@H](C)O)NC1=O)C(=O)N[C@@H](Cc1ccc(O)cc1)C(=O)N[C@@H](CC(N)=O)C(=O)N[C@@H](CC(=O)O)C(=O)N1CCC[C@H]1C(=O)N[C@@H](CCCCN)C(=O)N2) [ECII-22AA Cys/Ser mutant (Gly-)cyclopeptide (formula IX′)]
,,,55%,,,,24%,35%,50%,ARAESDEARRCYNDPKCCDFVTNRQ [linear non-mutated 3 Cys-containing ECII-25AA Cys/Cys (Gln25) peptide]
,,,,,,,24%,35%,50%,ADEARRCYNDPKCSDFVQ [linear ECII-18AA Cys/Ser mutated (Gln18-)peptide]
50%,68%,60%,,53%,66%,85%,,,,cyclo(ADEARRCYNDPKCSDFVQ) (disulfide 7-13; SMILES CC(C)[C@@H]1NC(=O)[C@H](Cc2ccccc2)NC(=O)[C@H](CC(=O)O)NC(=O)[C@H](CO)NC(=O)[C@@H]2CSSC[C@H](NC(=O)[C@H](CCCNC(=N)N)NC(=O)[C@H](CCCNC(=N)N)NC(=O)[C@H](C)NC(=O)[C@H](CCC(=O)O)NC(=O)[C@H](CC(=O)O)NC(=O)[C@H](C)NC(=O)[C@H](CCC(N)=O)NC1=O)C(=O)N[C@@H](Cc1ccc(O)cc1)C(=O)N[C@@H](CC(N)=O)C(=O)N[C@@H](CC(=O)O)C(=O)N1CCC[C@H]1C(=O)N[C@@H](CCCCN)C(=O)N2) [ECII-18AA Cys/Ser mutant (Gln-)cyclopeptide (formula VI)]
47%,1%,,,,,,,,,cyclo(ADEARRCYNDPKSCDFVQ) (disulfide 7-14 (inferred)) [β1-ECII-18AA Ser/Cys mutant (Gln-)cyclopeptide (formula X)]
,,82%,,,,,,,,"cyclo(RAESDEARRCYNDPKCCDFVTG) (also: disulphide pairing among Cys10, Cys16, Cys17 not defined) [cyc22AA Cys/Cys, 3 cysteine-containing cyclic β1-ECII 22AA peptide with a Gly closure site]"
47%,69%,,69%,,,,,,,cyclo(ADEARRCYNDPKCSDFV[dE]) (disulfide 7-13; SMILES CC(C)[C@@H]1NC(=O)[C@H](Cc2ccccc2)NC(=O)[C@H](CC(=O)O)NC(=O)[C@H](CO)NC(=O)[C@@H]2CSSC[C@H](NC(=O)[C@H](CCCNC(=N)N)NC(=O)[C@H](CCCNC(=N)N)NC(=O)[C@H](C)NC(=O)[C@H](CCC(=O)O)NC(=O)[C@H](CC(=O)O)NC(=O)[C@H](C)NC(=O)[C@@H](CCC(=O)O)NC1=O)C(=O)N[C@@H](Cc1ccc(O)cc1)C(=O)N[C@@H](CC(N)=O)C(=O)N[C@@H](CC(=O)O)C(=O)N1CCC[C@H]1C(=O)N[C@@H](CCCCN)C(=O)N2) [β1-ECII-18AA Cys/Ser cyclopeptide mutant with D-Glu ring closure (formula VIII)]
33%,1%,,1%,,,,,,,cyclo(ADEARRCYNDPKSCDFV[dE]) (disulfide 7-14 (inferred)) [β1-ECII-18AA Ser/Cys cyclopeptide mutant with D-Glu ring closure (formula XII)]
67%,59%,66.1%,60%,46%,56%,71%,,,,"cyclo(ADEARRCYNDPKCCDFVQ) (also: three Cys (7, 13, 14), disulfide pairing not defined) [3 Cys-containing β1-ECII-18AA Cys/Cys cyclopeptide]"
37%,6%,,6%,,,,,,,cyclo(ARAESDEARRCYNDPKSCDFVTNRQ) (disulfide 11-18 (inferred)) [β1-ECII-25AA Ser/Cys mutant (Gln-)cyclopeptide (formula XI)]
